Test results from article PMC2787876 (Journal of molecular biology, 2009).

Molecular target: light activated unphosphorylated rhodopsin (UniProt P02699 1-348, retinal chromophore, light-activated)
Assay: dissociation of the complex after dilution

Sequence of light activated unphosphorylated rhodopsin (P02699 whole entry): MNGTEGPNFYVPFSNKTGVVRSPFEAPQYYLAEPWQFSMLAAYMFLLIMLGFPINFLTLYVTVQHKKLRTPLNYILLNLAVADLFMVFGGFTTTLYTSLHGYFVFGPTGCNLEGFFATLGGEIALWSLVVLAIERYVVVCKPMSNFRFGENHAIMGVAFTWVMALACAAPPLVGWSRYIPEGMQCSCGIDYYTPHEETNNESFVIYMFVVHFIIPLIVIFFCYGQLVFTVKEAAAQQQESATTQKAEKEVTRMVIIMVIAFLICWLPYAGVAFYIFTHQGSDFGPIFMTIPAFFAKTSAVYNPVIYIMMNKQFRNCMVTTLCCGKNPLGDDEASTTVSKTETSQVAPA

half-life of the complex (t1/2) | Binder
1.2 ± 0.117 h | arrestin1 2A-3A-h3A (natural protein, bovine, UniProt P08168 1-404, looked up, [3H]leucine and [14C]leucine incorporated) MKANKPAPNHVIFKKISRDKSVTIYLGKRDYIDHVERVEPVDGAVAVDPELVKGKRVYVSLTCAFRYGQEDIDVMGLSFRRDLYFSQVQVFPPVGASGATTRAQESAIKKAGANTYPFLLTFPDYLPCSVMLQPAPQDVGKSCGVDFEIKAFATHSTDVEEDKIPKKSSVRLLIRKVQHAPRDMGPQPRAEASWQFFMSDKPLRLAVSLSKEIYYHGEPIPVTVAVTNSTEKTVKKIKVLVEQVTNVVLYSSDYYIKTVAAEEAQEKVPPNSSLTKTLTLVPLLANNRERRGIALDGKIKHEDTNLASSTIIKEGIDKTVMGILVSYQIKVKLTVSGLLGELTSSEVATEVPFRLMHPQPEDPDTAKESFQDENAAAEEFARQNLKDAGEYKEEKTDQEAAMDE
1.28 ± 0.15 h | arrestin1 h3A on the background of the 3A mutation (natural protein, bovine, UniProt P08168 1-404, looked up, [3H]leucine and [14C]leucine incorporated) MKANKPAPNHVIFKKISRDKSVTIYLGKRDYIDHVERVEPVDGVVLVDPELVKGKRVYVSLTCAFRYGQEDIDVMGLSFRRDLYFSQVQVFPPVGASGATTRAQESAIKKAGANTYPFLLTFPDYLPCSVMLQPAPQDVGKSCGVDFEIKAFATHSTDVEEDKIPKKSSVRLLIRKVQHAPRDMGPQPRAEASWQFFMSDKPLRLAVSLSKEIYYHGEPIPVTVAVTNSTEKTVKKIKVLVEQVTNVVLYSSDYYIKTVAAEEAQEKVPPNSSLTKTLTLVPLLANNRERRGIALDGKIKHEDTNLASSTIIKEGIDKTVMGILVSYQIKVKLTVSGLLGELTSSEVATEVPFRLMHPQPEDPDTAKESFQDENAAAEEFARQNLKDAGEYKEEKTDQEAAMDE
